Results as given in publication PMC9330529.
Like-named read-outs stand apart in the source and are kept apart here.

Experiments:
[1] = molecular target: SARS-CoV-2 spike protein WT (SARS-CoV-2 (WT)) (UniProt P0DTC2)
[2] = molecular target: SARS-CoV-2 spike protein WT (SARS-CoV-2 (WT)) (UniProt P0DTC2); experiment: competition ELISA
[3] = molecular target: SARS-CoV-2 spike protein WT (SARS-CoV-2 (WT)) (UniProt P0DTC2); remark: listed apart in the source
[4] = molecular target: SARS-CoV-2 spike protein WT (SARS-CoV-2 (WT)) (UniProt P0DTC2); remark: listed apart in the source

Sequence | Kd [1] [nM] | binding signal (% spike still bound to hACE2) [2] | Kd [3] [nM] | Kd [4] [nM]
AGGCGGGTTCCTAGACTTGTACTCAGCCTTTTTTTTTTTTTTTTCGCAGCACCCAAGAACAAGGACTGCTTAGGATTGCGATAGGTTCGG [S2A2C1-T15-S1B6C3] | 61.4 | – | – | –
CGCAGCACCCAAGAACAAGGACTGCTTAGGATTGCGATAGGTTCGGAAAAAAAAAAAAAAAAGGCGGGTTCCTAGACTTGTACTCAGCCT [S1B6C3-A15-S2A2C1] | – | 12 | – | –
CGCAGCACCCAAGAACAAGGACTGCTTAGGATTGCGATAGGTTCGGAAAAAAGGCGGGTTCCTAGACTTGTACTCAGCCT [S1B6C3-A5-S2A2C1] | – | 8 | 35.8 | 34.6
CGCAGCACCCAAGAACAAGGACTGCTTAGGATTGCGATAGGTTCGGTTTTTTTTTTTTTTTAGGCGGGTTCCTAGACTTGTACTCAGCCT [S1B6C3-T15-S2A2C1] | 46.1 | 24 | – | –
